Results as given in patent CN114349855A (BAISIS MEDICAL DIAGNOSIS SCIENCE AND TECH BEIJING LIMITED …, dated 2022).

How the values were obtained:
Test in all cases: ELISA, S protein coated at 2 μg/mL
[1] = biological target: T1, 新型冠状病毒Alpha Spike蛋白 (新型冠状病毒 (SARS-CoV-2) Alpha突变株, UniProt P0DTC2 16-1213)
T1 construct: also called Alpha的S蛋白

[2] = biological target: T2, 新型冠状病毒Beta Spike蛋白 (新型冠状病毒 (SARS-CoV-2) Beta突变株, UniProt P0DTC2 16-1213)
T2 construct: also called Beta的S蛋白

[3] = biological target: T3, 新型冠状病毒Gamma Spike蛋白 (新型冠状病毒 (SARS-CoV-2) Gamma突变株, UniProt P0DTC2 16-1213)
T3 construct: also called Gamma的S蛋白

Measured: binding result

B1: 抗体 克隆号7D7G3D4 (antibody, V domains shown)
VH: EVQLVESGGGLVQPGGSLRLSCAASGLTVSSNHMSWVRQAPGKGLEWVSIIYSGGSTYYADSVKGRFTISRDNSKNTLYLQMDSLRAEDTTVYYCARAQGGWELPGAGYYYFNGMDFWGQGTTVTVSS
VL: DIQMTQSPSSLSASVGDRVTITCRASQSISTYLNWYQQKPGKAPKLLIYAASNLQSGVPSRFSGSASGTDFTLTISSLQPEDFATYFCQQSYSTSFTFGPGTKVDIK
no binding (tested: 1 μg/mL): all assays above

B2: 抗体 克隆号9A5F6 23F1 (antibody, V domains shown)
VH: QVQLVESGGGVVQPGRSLRLSCAASGFTFSSYAMYWVRQAPGKGLECVAGISYDGSNKYYADSVKGRFTISRENSKNTLYLQMNSLISEDTAVYYCARAEWDYWGQGTLVTVSS
VL: SYELTQPSSVSVSPGQTARITCSGDVLAKKYARWFQQKPGQAPVLVIYKDSERPSGIPERFSGSSSGTTVTLTISGAQVEDEADYYCYSAADNNLGVFGGGTKL
no binding (tested: 1 μg/mL): all assays above

B3: 抗体 克隆号9A5D9 22G3 (antibody, V domains shown)
VH: EVQLVESGGGLVKPGGSLRLSCAASGFTFSSYSMNWVRQAPGKGLEWVSSISRSSSYIYYADSVMGRFTISRDNAKNSLYLQMNSLRADDTAVYYCARDRGSGNYYVDGLDIWGQGTMVTVSS
VL: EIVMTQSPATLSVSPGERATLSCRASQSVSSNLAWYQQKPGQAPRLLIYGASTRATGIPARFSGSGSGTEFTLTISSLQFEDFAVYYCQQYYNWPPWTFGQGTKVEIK
no binding (tested: 1 μg/mL): all assays above
